Reference: US20080182247A1

Target: CD70 (human) (UniProt P32970)
Test: cell-based or functional assay

CD70 (human), sequence (P32970 whole entry): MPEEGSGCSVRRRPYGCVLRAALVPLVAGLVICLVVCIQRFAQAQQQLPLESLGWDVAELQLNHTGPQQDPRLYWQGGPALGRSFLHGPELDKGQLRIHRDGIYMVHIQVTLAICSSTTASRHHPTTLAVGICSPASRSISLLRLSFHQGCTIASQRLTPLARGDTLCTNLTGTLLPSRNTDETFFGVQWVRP

IgG synthesis by purified B cells stimulated with LPS (control without T cells): 125 µg/mL
Substance: anti-CD70 monoclonal antibody (HNE51) (DAKO)
